{"source": "paper PMC10197580", "about": "(bioRxiv, 2023)", "binders": {"B1": {"name": "POT1(SED)/GFP-TPP1 (complex)", "chain 1": "MSLVPATNYIYTPLNQLKGGTIVNVYGVVKFFKPPYLSKGTDYCSVVTIVDQTNVKLTCLLFSGNYEALPIIYKNGDIVRFHRLKIQVYKKETQGITSSGFASLTFEGTLGAPIIPRTSSKYFNFTTEDHKMVEALRVWASTHMSPSWTLLKLCDVQPMQYFDLTCQLLGKAEVDGASFLLKVWDGTRTPFPSWRVLIQDLVLEGDLSHIHRLQNLTIDILVYDNHVHVARSLKVGSFLRIYSLHTKLQSMNSENQTMLSLEFHLHGGTSYGRGIRVLPESNSDVDQLKKDLESANLTANQHSDVICQSEPDDSSPESDSVSLYEVERCQQLSATILTDHQYLERTPLCAILKQKAPQQYRIRAKLRSYKPRRLFQSVKLHCPKCHLLQEVPHEGDLDIIFQDGATKTPDVKLQNTSLYDSKIWTTKNQKGRKVAVHFVKNNGILPLSNECLLLIEGGTLSEICKLSNKFNSVIPVRSGHEDLELLDLSAPFLIQGTIHHYGCKQCSSLRSIQNLNSLVDKTSWIPSSVAEALGIVPLQYVFVMTFTLDDGTGVLEAYLMDSDKFFQIPASEVLMDDDLQKSVDMIMDMFCPPGIKIDAYPWLECFIKSYNVTNGTDNQICYQIFDTTVAEDVI", "chain 2": "MAGSGRLVLRPWIRELILGSETPSSPRAGQLLEVLQDAEAAVAGPSHAPDTSDVGATLLVSDGTHSVRCLVTREALDTSDWEEKEFGFRGTEGRLLLLQDCGVHVQVAEGGAPAEFYLQVDRFSLLPTEQPRLRVPGCNQDLDVQKKLYDCLEEHLSESTSSNAGLSLSQLLDEMREDQEHQGALVCLAESCLTLEGPCTAPPVTHWAASRCKATGEAVYTVPSSMLCISENDQLILSSLGPCQRTQGPEL"}, "B2": {"name": "POT1(SED)/GFP-TPP1 treated with λ protein phosphatase (complex)", "chain 1": "B1 chain 1", "chain 2": "B1 chain 2", "modifications": "dephosphorylated with λ protein phosphatase | dephosphorylated with λ protein phosphatase"}, "B3": {"name": "His6-POT1(ESDL)/TwinStrep-GFP-TPP1 (complex)", "chain 1": "MSLVPATNYIYTPLNQLKGGTIVNVYGVVKFFKPPYLSKGTDYCSVVTIVDQTNVKLTCLLFSGNYEALPIIYKNGDIVRFHRLKIQVYKKETQGITSSGFASLTFEGTLGAPIIPRTSSKYFNFTTEDHKMVEALRVWASTHMSPSWTLLKLCDVQPMQYFDLTCQLLGKAEVDGASFLLKVWDGTRTPFPSWRVLIQDLVLEGDLSHIHRLQNLTIDILVYDNHVHVARSLKVGSFLRIYSLHTKLQSMNSENQTMLSLEFHLHGGTSYGRGIRVLPESNSDVDQLKKDLESANLTANQHSDVICQSEPDDSFPSSGSESDLVSLYEVERCQQLSATILTDHQYLERTPLCAILKQKAPQQYRIRAKLRSYKPRRLFQSVKLHCPKCHLLQEVPHEGDLDIIFQDGATKTPDVKLQNTSLYDSKIWTTKNQKGRKVAVHFVKNNGILPLSNECLLLIEGGTLSEICKLSNKFNSVIPVRSGHEDLELLDLSAPFLIQGTIHHYGCKQCSSLRSIQNLNSLVDKTSWIPSSVAEALGIVPLQYVFVMTFTLDDGTGVLEAYLMDSDKFFQIPASEVLMDDDLQKSVDMIMDMFCPPGIKIDAYPWLECFIKSYNVTNGTDNQICYQIFDTTVAEDVI", "chain 2": "B1 chain 2", "modifications": "phosphorylated in insect cells (sites not identified)"}, "B4": {"name": "POT1(ESDL) (natural protein)", "chain": "B3 chain 1", "modifications": "phosphorylated in insect cells (sites not identified)"}, "B5": {"name": "Stn1 (natural protein)", "chain": "MQPGSSRCEEETPSLLWGLDPVFLAFAKLYIRDILDMKESRQVPGVFLYNGHPIKQVDVLGTVIGVRERDAFYSYGVDDSTGVINCICWKKLNTESVSAAPSAARELSLTSQLKKLQETIEQKTKIEIGDTIRVRGSIRTYREEREIHATTYYKVDDPVWNIQIARMLELPTIYRKVYDQPFHSSALEKEEALSNPGALDLPSLTSLLSEKAKEFLMENRVQSFYQQELEMVESLLSLANQPVIHSASSDQVNFKKDTTSKAIHSIFKNAIQLLQEKGLVFQKDDGFDNLYYVTREDKDLHRKIHRIIQQDCQKPNHMEKGCHFLHILACARLSIRPGLSEAVLQQVLELLEDQSDIVSTMEHYYTAF"}}, "key": {"His6-MBP-Ctc1/Stn1/Ten1 [1]": {"target": "T1, His6-MBP-Ctc1/Stn1/Ten1 (human, UniProt Q2NKJ3;Q9H668;Q86WV5)", "T1 sequence (Q86WV5 whole entry, one chain of several)": "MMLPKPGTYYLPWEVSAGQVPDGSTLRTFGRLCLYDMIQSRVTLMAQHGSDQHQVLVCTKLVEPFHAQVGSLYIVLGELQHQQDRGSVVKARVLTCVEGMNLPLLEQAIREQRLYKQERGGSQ", "assay": "SEC"}, "His6-MBP-Ctc1/Stn1/Ten1 [2]": {"target": "T1, His6-MBP-Ctc1/Stn1/Ten1", "assay": "cryo-EM structure"}, "[3]": {"target": "CST with the His6-MBP tag cleaved (human, UniProt Q2NKJ3;Q9H668;Q86WV5)", "sequence (Q86WV5 whole entry, one chain of several)": "as above", "assay": "negative-stain EM"}, "His6-MBP-Ctc1 [4]": {"target": "T2, His6-MBP-Ctc1 (human, UniProt Q2NKJ3 1-1217)", "T2 sequence": "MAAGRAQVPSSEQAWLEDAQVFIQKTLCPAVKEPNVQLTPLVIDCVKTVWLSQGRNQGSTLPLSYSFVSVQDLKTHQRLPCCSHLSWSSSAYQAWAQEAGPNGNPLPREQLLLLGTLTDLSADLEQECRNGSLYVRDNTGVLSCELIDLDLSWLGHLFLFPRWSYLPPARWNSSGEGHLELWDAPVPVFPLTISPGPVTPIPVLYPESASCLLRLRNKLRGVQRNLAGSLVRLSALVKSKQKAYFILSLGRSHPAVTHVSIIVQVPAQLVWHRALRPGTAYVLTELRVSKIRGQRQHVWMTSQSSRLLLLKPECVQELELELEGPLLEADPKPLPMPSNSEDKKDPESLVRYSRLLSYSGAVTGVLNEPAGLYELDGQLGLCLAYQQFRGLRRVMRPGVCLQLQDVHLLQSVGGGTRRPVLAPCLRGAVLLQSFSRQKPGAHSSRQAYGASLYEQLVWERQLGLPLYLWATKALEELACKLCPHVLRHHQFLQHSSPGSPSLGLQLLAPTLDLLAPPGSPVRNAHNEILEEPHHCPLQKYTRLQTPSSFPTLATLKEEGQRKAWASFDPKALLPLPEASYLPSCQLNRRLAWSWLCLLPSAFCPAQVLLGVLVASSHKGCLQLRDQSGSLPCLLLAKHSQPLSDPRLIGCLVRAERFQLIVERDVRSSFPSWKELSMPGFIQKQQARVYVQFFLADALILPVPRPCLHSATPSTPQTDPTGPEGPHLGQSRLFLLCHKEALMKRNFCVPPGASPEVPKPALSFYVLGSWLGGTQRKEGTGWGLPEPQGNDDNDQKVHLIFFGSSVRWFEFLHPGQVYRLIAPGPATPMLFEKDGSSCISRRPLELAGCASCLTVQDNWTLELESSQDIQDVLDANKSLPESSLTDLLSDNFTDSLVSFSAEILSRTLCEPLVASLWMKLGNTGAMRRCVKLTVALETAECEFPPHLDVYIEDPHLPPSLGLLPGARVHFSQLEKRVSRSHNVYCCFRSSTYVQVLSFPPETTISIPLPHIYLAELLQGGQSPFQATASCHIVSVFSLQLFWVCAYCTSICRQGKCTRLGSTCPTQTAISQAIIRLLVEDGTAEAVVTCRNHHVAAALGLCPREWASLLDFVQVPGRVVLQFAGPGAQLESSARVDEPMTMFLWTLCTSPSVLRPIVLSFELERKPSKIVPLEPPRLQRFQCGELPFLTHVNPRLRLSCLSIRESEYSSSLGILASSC", "assay": "cryo-EM structure"}, "[5]": {"target": "T3, TwinStrep-GFP-TPP1 OB+RD (aa 1–251) (human, UniProt Q96AP0 1-251)", "T3 sequence": "B1 chain 2", "assay": "cryo-EM structure"}, "His6-MBP-Ctc1 [6]": {"target": "T2, His6-MBP-Ctc1", "assay": "cryo-EM structure", "remark": "listed apart in the source"}}, "note": "Where two headings read alike, the source gives them in different places.", "data": [{"binder": "B1", "values": [{"measurement": "binding result", "setting": "His6-MBP-Ctc1/Stn1/Ten1 [1]", "value": "binds"}]}, {"binder": "B2", "values": [{"measurement": "binding result", "setting": "His6-MBP-Ctc1/Stn1/Ten1 [1]", "value": "binds"}]}, {"binder": "B3", "values": [{"measurement": "binding result", "setting": "His6-MBP-Ctc1/Stn1/Ten1 [2]", "value": "binds"}, {"measurement": "binding result", "setting": "[3]", "value": "binds"}]}, {"binder": "B4", "values": [{"measurement": "binding result", "setting": "His6-MBP-Ctc1 [4]", "value": "binds"}, {"measurement": "binding result", "setting": "[5]", "value": "binds"}]}, {"binder": "B5", "values": [{"measurement": "binding result", "setting": "His6-MBP-Ctc1 [6]", "value": "binds"}]}]}
